According to publication PMC3655159 (Journal of molecular biology, 2013):

Target: the molecule itself
Test: SDS-PAGE under mildly denaturing conditions

B1: gB730 L700G/L711G (domain or fragment)
chain: not shown
With B1 the “stoichiometry N” value was 3.
